This is an account of results in article PMC9532426, “Autophagy induction promoted by m6A reader YTHDF3 through translation upregulation of FOXO3 mRNA”.

In the data set the target is T1, YTHDF3 (mouse, UniProt Q8BYK6 1-585).
T1 sequence: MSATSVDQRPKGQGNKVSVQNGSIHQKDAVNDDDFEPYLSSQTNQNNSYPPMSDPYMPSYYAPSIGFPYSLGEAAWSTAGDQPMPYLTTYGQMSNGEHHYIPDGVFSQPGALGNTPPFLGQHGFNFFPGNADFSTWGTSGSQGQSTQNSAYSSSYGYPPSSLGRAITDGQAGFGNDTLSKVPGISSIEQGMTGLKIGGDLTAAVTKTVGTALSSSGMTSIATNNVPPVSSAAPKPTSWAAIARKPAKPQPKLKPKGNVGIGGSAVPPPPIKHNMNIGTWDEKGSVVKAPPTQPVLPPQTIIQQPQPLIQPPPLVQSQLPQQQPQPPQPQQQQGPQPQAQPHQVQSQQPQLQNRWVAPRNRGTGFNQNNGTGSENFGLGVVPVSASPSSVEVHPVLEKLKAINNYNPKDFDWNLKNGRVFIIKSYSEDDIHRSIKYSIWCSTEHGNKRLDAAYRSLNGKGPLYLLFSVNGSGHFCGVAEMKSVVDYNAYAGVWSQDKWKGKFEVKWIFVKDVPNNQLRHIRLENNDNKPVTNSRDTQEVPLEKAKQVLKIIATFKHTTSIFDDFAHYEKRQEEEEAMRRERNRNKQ
Put plainly: EMSA; LightShift Chemiluminescent RNA EMSA kit; 20 pmol RNA, 6 ug YTHDF3, room temperature 30 min; 6% TBE gel, 0.5x TBE; buffer salt and pH not stated. The note with it: protein: commercial; label: 5' biotin. A general note: In EMSA bound probe runs differently from free probe, usually more slowly.

B1: Foxo3-CDS-m6A-biotin-RNAProbe 1 (ssRNA)
RNA: GUGACUUGGACCUGGAC
modifications: m6A at A4, A10, A16 (from text sites 2151, 2158, 2163 nt; the modified probe line is not in the material)
For B1, the binding result is “binds”.
